From the DeepSol protein solubility set

Test: soluble on expression in E. coli; label from the status in PepcDB or PDB records

| Sequence | soluble on expression in E. coli |
| --- | --- |
| GPGSMAFGNASKGTDDYTPEEHLTAAVMEYKKLEAANQNSVEHMYNVLSSPFKIGSKPCEAIRGDALRCLSEIIGNFTAKSTSGTDGSTVMANSASIVSQELPPIHRCYESVLHYESCVLERTLSRHNSMVATFEARRLREADSAREAAAAGGDI | not soluble |
| MRGSHHHHHHTDPALRAQTQVLFEHPLNEKMRTWLRIEFLIQQLTVNLPIVDHAGALHFFRNVSELLDVFERGEVRTELLKELDRQQRKLQTWIGVPGVDQSRIEALIQQLKAAGSVLISAPRIGQFLREDRLIALVRQRLSIPGGCCSFDLPTLHIWLHLPQAQRDSQVETWIASLNPLTQALTMVLDLIRQSAPFRKQTSLNGFYQDNGGDADLLRLNLSLDSQLYPQISGHKSRFAIRFMPLDTENGQVPERLDFELACCGLCGR | soluble |
| MKKFLTQVFTWWNGQTLGTRFHTWRKGERVGEDEFGNVYYQGGKDSEGRTRRWVIFNGYSEASTIPPGWHGWMHHRVDTPPSKEDYRPREWQKPHLQNLTGSPLAYRPKGSIALPGAQPAERPRVTGEYDAWTPGNLEHHHHHH | not soluble |
| MGHHHHHHSHVAEGQEPAEFWDLLGGKTPYANDKRLQQEILDVQSRLFECSNKTGQFVVTEITDFTQDDLNPTDVMLLDTWDQVFLWIGAEANATEKESALATAQQYLHTHPSGRDPDTPILIIKQGFEPPIFTGWFLAWDPNIWSAGKTYEQLKEELGDAAAIMRITADMKNATLSLNSNDSEPKYYPIAVLLKNQNQELPEDV | soluble |
| MANFQATIHSRPLSPEFMTQARRPASTIQAVLTNLREKISLQSILPGARLTEEELVDNYSIPRAMAREVLAVLEDRGIVRRIPNKGAVVAHVDMQWVYHYYDAREALDGMMVRLAARQTRPEDWADLVEQFGEPFQKALETGDVDRLISLIETFRNRLQTAANNPVLSDLAERIHERIRVVRQRVVLLPGRAETMVADYRAVLAALARSDAEEAEQLMGILNRNNRAAIQKYERYVV | not soluble |
| MATITDIAKVANVSISTVSRVLNYDPNLSVTEETKRKIFEAAETLNYTKYKTKNKNKQQEQLTPNLSVQTAPQEPSIAVVQWRSDDEELTDIYYMSIRLGAEKRAEELGYNILKVSQLEQHNLQGIDGILAIGKFTQKTLQELQQLHPNLCVIGSNFPLEEFDSVNTDFYQATEIALTHLLELGHEKIAFIGAEESENMYGFRRYKTPTTNAYLDIMQHYHLFNEDYFILKENGMLDVKTGEQLTEEALEKWGNDLPTAILAYNDAFAIGVIHTLAAHGIKVPEEISVMGINDISISQYVSPPLSSVHAFTEEMGETGINLLHKRIQMPSIPRRVLLNTELVVRQSTTSPRQK | soluble |
| MYGPGYAPYYGSPYGDPCYGPAYGPAYGPTYVQPIAQPVYVHDTRAEEACCAGACCMALFCCCAMNS | soluble |
| MPMISCDMAYGRTDEQKRALSAGLLRVISEATGEPRENIFFVIREGSGINFVEHGEHLPDYVPGNANDKALIAKLK | soluble |
| MNFRTGQPSDAAALAAISIEVWLGTYMRKGVSAFFAEYALNEFTSTKMASLLKDPNEHVIVSENEGGIDAFIRLGQGRAAPVSGCSTLEIATLYVQPRHHRRGLGRALLEQGLAYARQASAPSVWLTTNSENAPAIAFYLEQGFEKVGTTHFNIGDQ | not soluble |
| ADCSSDLTSGISTKRIYYVAPNGNSSNNGSSFNAPMSFSAAMAAVNPGELILLKPGTYTIPYTQGKGNTITFNKSGKDGAPIYVAAANCGRAVFDFSFPDSQWVQASYGFYVTGDYWYFKGVEVTRAGYQGAYVIGSHNTFENTAFHHNRNTGLEINNGGSYNTVINSDAYRNYDPKKNGSMADGFGPKQKQGPGNRFVGCRAWENSDDGFDLFDSPQKVVIENSWAFRNGINYWNDSAFAGNGNGFKLGGNQAVGNHRITRSVAFGNVSKGFDQNNNAGGVTVINNTSYKNGINYGFGSNVQSGQKHYFRNNVSLSASVTVSNADAKSNSWDTGPAASASDFVSLDTSLATVSRDNDGTLPETSLFRLSANSKLINAGTKESNISYSGSAPDLGAFERN | soluble |
| LMVGGLLLAAASNNVQAEALQPDPAWQQGKLDNGFSWQLLATPQRPSDRIELRLIVNTGSLSENTQEVGFAHLLPRLALMSSASFTPAQLQSLWQQGIDNERPLPPAITSYDFTLYSLSLPNNRPDLLKDALAWLSDTAGNLAVSEQTVNAALNTATDPIATFPQNIQEPWWRYRLKGSSLIGHDPGQPVTQPVDVEKLKQFYQQWYTPDAMTLYVVGNVDSRSIAAQISKAFSELKGKRTAPAAVATLAPLPPEPVSLMNEQAAQDTLSLMWDTPWHPIQDSMALSRYWRSDLAREALFWHIKQVLEKNNQKNLKLGFDCRVQYQRAQCAIHLNTPVENLTANMTFVARELAALRANGLSQAEFDALMTQKNDQLSKLFATYARTDTDILMSQRLRSQQSGVVDIAPEQYQKLRQAFLSGLTLAELNRELKQQLSQDTTLVLMQPKGEPEVNVKALQEIYNGIMAPQTVAEEEVAPAEAVETAPVMPTTAQ | soluble |
| MGHHHHHHSHALQVDISDALSERDKVKFTVHTKSSLPNFKQNEFSVVRQHEEFIWLHDSFVENEDYAGYIIPPAPPRPDFDASREKLQKLGEGEGSMTKEEFTKMKQELEAEYLAIFKKTVAMHEVFLCRVAAHPILRRDLNFHVFLEYNQDLSVRGKNKKEKLEDFFKNMVKSADGVIVSGVKDVDDFFEHERTFLLEYHNRVKDASAKSDRMTRSHKSAADDYNRIGSSLYALGT | not soluble |
| MSLNEHDIYMQDFMTVFASLQHWGPGSEQDSLKAISLMSMQNMQHILDIGCETGLSTLLLAENSSAHITAVDNEPIAIEQLEKQRQHSPWKEQISPVLGSMTALPFAAKSFDAIWAEGCVYIMGMENALKQWKPFLADNAILMVSDLVWLTENPKPEAQEFWQSEYPDIQSIPSRIKLFKKLGYEVMEHFSLGIDAWQNYWLPLQNRVQELKLRLTNSQALSDIEKEIAIYERSAAKDFTYQYFVLKLNHEGHHHHHH | not soluble |
| GPGSMKKTVEDRSLEFLIRRRNDAELPPLASLSCKHLKQHHWRDAFDDEQAALREQLWAVKTQLDVIPAETYTATRNKLFPLAASGEQRNFSNRAGHKLLESMESTGVWMELSKLLRGKSTKRPRDFAFADVCGGPGAFSQALFQAGRKRGWRHLHGYGMTLAGVSGLDWYAHLLKSPQFTCTYGLDGTGDIFKLSNIDCLASITKAAPMFLVVADGGFNVDFSVTNYQETISSRIMYGQWLAALKLLRKGGCFVLKLFDTFSPLSRAVLYLSCCMYRRVHVAKPRHSRVVNSERYLVCVDFLGYPSEGWSRYLDSFYEVGFVDNEHVPQLIPREWCLQDAVFMADVRDMNTAVATNQVIALQMILDAAPAMTEELKAKTIEKKPAAGSDDGRTPPPDEGGDGE | not soluble |
| MSLNRYLAAPEIKANETLVIADRYAYFNIPSWKGAGVAVPVFSLKSEKSFGVGDFGDLKRMVDWAVSTNQKVVQILPINDTTMTHTWTDSYPYNSISIYAFHPMYADLKQMGNLKDKETAAAFNRKQKELNALSAIDYEAVNRVKWEYFHQIFKQEGEKVLASKAFRSFFEANKDWLQPYAAFSYLRDLYHTPNFREWPQYSEYNAQEIEELCRPDTADYAHIAIYFYIQFNLHLQLLEATTYAREHGVVLKGDIPIGISRNSVEAWTEPYYFNLNGQAGAPPDDFSINGQNWGFPTYNWDVMENDGYKWWMKRFQKMAEYFDAYRIDHILGFFRIWEIPMNAVHGLLGQFVPALPMSREEIESYGLSFREEFLRPYIHEYFLGQVFGPHTDYVKQTFIEPTETYEVYRMRPEFDTQRKVEAFFAGKNDEDSIWVRDGLYALISDVLFVPDRKDPNLYHPRIGVQHDFIYRALNDWEKTAFNRLYDQYYYHRHNDFWQQQAMKKLPQLTQSTRMLVCGEDLGMIPDCVAWVMNDLRILSLEIQRMPKNPAEEFGRLNEYPYRSVCTFSTHDMSTLRGWWEEDYQQTQRYYNQMLGHYGTAPAIATPELCEEIVRNHLYSNSILCILSLQDWLSMDGKWRNPNVQEERINIPANPRHYWRYRMHLTLEQLMKAESLNEKIRELVKQTGRNEGHHHHHH | soluble |
| MKTSIIILTCNNLRYSRRCIESIKKYTEKEAYEIIVVDNNSNDGTRNWLSKQKAIKKIYNNVNVGFPRGCNMGIKVACGSEVLLLNNDVVVTHNWLNNLRNCLYSSYEIGAVGPISNNCSNGQKINVRYDSIEDMHRFSKKYNISNKKKWTEVKRLIGFCFLIKRNVIRKVGLFDERFTPGNFEDDDYCIRMRKIGFRLMLCKDTFVHHYGSVSFKNTQYLKLLEVNKSKLEKKWGKSYDKLVLEHHHHHH | not soluble |
| GPLGSMKLRVENPKKAQKHFVQNLNNVVFTNKELEDIYNLSNKEETKEVLKLFKLKVNQFYRHAFGIVNDYNGLLEYKEIFNMMFLKLSVVFDTQRKEANNVEQIKRNIAILDEIMAKADNDLSYFISQNKNFQELWDKAVKLTKEMKIKLKGQKLDLRDGEVAINKVRELFGSDKNVKELWWFRSLLVKGVYLIKRYYEGDIELATTSDFAKAVFE | soluble |
| PDDVSVLAANGEKAKLSGGFFASEKALTLPDGVNQVVFRYAPYFNQGNDRLSVESDVIVARFDTANAELTIEVPKYRNMRDAEENIKDLDWKLVDGSGKAVAVDQDKLIKPGMQIGRDYVREIEDYNR | not soluble |
| MSQRTSEENRYEQLHRFAAKIHSTMQIDDVLEEIICTLQNVYPAFTYHLLLSHDNHVCGNLPIKTLALDESEGQPAALRAFLTGQVQCEETAAPPRSVLYAPIKGVQAVYGVIQIIAPYAAPFPKREINFISLLAGTAGRALENAKLYEQSRRLEHHHHHH | soluble |
| MAISGVTLEESVRGAIDDLRMKKSRYVMMCIGADGKKIEVTEVGERSVNYTDLKEKFSTEKPCYVAFDFEYNDAGSKREKLILIQWIPDTARPREKMMYSASRDALSSVSEGYLPIQANDESGLDAEEIIRKVRLHRSVAAALE | soluble |
| MPKLTIEGAGTFDVKEGTKLVLAIEDSGVNILHRCGGNARCTTCRVEILAGDFCEASANEKHAMTEKGIEDHLRLSCQMRVHKDIVVRPVLTVENSGLDAGPRPAE | not soluble |
| MTSSPELARAVAATLARHVTDVVICPGSRNSPLSLELIARDDIRVHTRIDERSAAFLALGLARSSKRHVAVVTTSGTAVANCAPAMIEAAYSHTPLIMVSADRPERLHGTGANQTIEQRGIFNVVDTDHVVDITDLNSISFARNVIHINVALDVPLVDVLPEV | not soluble |
| MAHHHHHHMEQRELEKLFAPYGQILSAAVMRNIHTGNSLGTAFVRYASTEEAMSAIKGMSGKRIGGRAIAVQWAKKQHDYAPVGEARKKISKLFVRNIPLDINTVVLEDMFSMYGPVKSVSIHKDTAPDCDKNFERHIAFITFLADGAAERAAEAVHNTRPFPSCGKVPLMVKLAEDAPQRIHHGTGSKNSANALRTKQQLQGDMSAMSSGQEQFFDAPAVQQCFPTGTGTGAMVVAPTSYFSLLASGGLILPGSLPGAVMGSEAPYPWRTRVTWPQGTGVPFPFYNGGAAATAANPLAPSNACATPPSGSPVSCMNNGGFTSFPMYTTPFCPSTSPGLSGTQADSVAGSPLILPSSLHQ | not soluble |
| MGSDKIHHHHHHLSSPQYRINMQKYVFRIHPLNTYQLSFFPNYEVNMYKKLNPMIGDRVYRSKGLVMHVGVMVDRDLVAHNSPDNNVEVISMEHFSQGKKVELKRSIGVDPTALKAQLQRISEENRRYCPISFNCEHFANELLGTKDGSEQLLAALLVGSFGLTCKNKWLGLATAGATGLLLCNGLRKYSTT | not soluble |
